From patent US20200360435A1 (published 2020)

B1: TCR7-2 (TCR, V domains shown)
Valpha: KQEVTQIPAALSVPEGENLVLNCSFTDSAIYNLQWFRQDPGKGLTSLLLIQSSQREQTSGRLNASLDKSSGRSTLYIAASQPGDSATYLCAVSRGNARLMFGDGTQLVVKP
Vbeta: DTGVSQDPRHKITKRGQNVTFRCDPISEHNRLYWYRQTLGQGPEFLTYFQNEAQLEKSRLLSDRFSAERPKGSFSTLEIQRTEQGDSAMYLCASAEDRGEKLFFGSGTQLSVL
B2: TCR7-3 (TCR, V domains shown)
Valpha: KQEVTQIPAALSVPEGENLVLNCSFTDSAIYNLQWFRQDPGKGLTSLLLIQSSQREQTSGRLNASLDKSSGRSTLYIAASQPGDSATYLCAVSRGNNRLAFGKGNQVVVIP
Vbeta: DTGVSQDPRHKITKRGQNVTFRCDPISEHNRLYWYRQTLGQGPEFLTYFQNEAQLEKSRLLSDRFSAERPKGSFSTLEIQRTEQGDSAMYLCASSPDRADTQYFGPGTRLTVL

Target: HTLV-1 Tax peptide on HLA-A*24:02 (human)
Assay: multimer staining

Row | Binder | binding result
1 | B1 | recognises
2 | B2 | recognises
